Test results as given in US20250145720A1.

Assays:
[1] = target: mouse FcRn, biotinylated extracellular domain (FcRnECDHis-B2M-BIO) (mouse) (UniProt Q61559); assay: ELISA on coated mouse FcRn at pH 6.0, apparent affinity
[2] = target: human complement component C1q (human) (UniProt P02745); assay: FACS, C1q on antibody-opsonized Raji cells, Exp. 1
[3] = target: human complement component C1q (human) (UniProt P02745); assay: FACS, C1q on antibody-opsonized Daudi cells, Exp. 10
[4] = target: human complement component C1q (human) (UniProt P02745); assay: C1q ELISA, antibody coated in dilution series, 3% pooled human serum
[5] = target: human complement component C1q (human) (UniProt P02745); assay: FACS, C1q on antibody-opsonized Daudi cells, Exp. 11
[6] = target: human complement component C1q (human) (UniProt P02745); assay: FACS, C1q on antibody-opsonized Daudi cells, Exp. 1
[7] = target: human complement component C1q (human) (UniProt P02745); assay: FACS, C1q on antibody-opsonized Raji cells, Exp. 3
[8] = target: human complement component C1q (human) (UniProt P02745); assay: cell-based or functional assay
[9] = target: human complement component C1q (human) (UniProt P02745); assay: FACS, C1q on antibody-opsonized Daudi cells, average
[10] = target: human complement component C1q (human) (UniProt P02745); assay: FACS, C1q on antibody-opsonized Daudi cells, Exp. 7
[11] = target: human complement component C1q (human) (UniProt P02745); assay: FACS, C1q on antibody-opsonized Daudi cells, ranking table
[12] = target: human complement component C1q (human) (UniProt P02745); assay: FACS, C1q on antibody-opsonized Daudi cells, Exp. 6
[13] = target: human complement component C1q (human) (UniProt P02745); assay: FACS, C1q on antibody-opsonized Raji cells, average
[14] = target: human complement component C1q (human) (UniProt P02745); assay: FACS, C1q on antibody-opsonized Daudi cells, Exp. 2
[15] = target: human complement component C1q (human) (UniProt P02745); assay: FACS, C1q on antibody-opsonized Daudi cells, Exp. 3
[16] = target: human complement component C1q (human) (UniProt P02745); assay: FACS, C1q on antibody-opsonized Daudi cells, Exp. 4
[17] = target: human complement component C1q (human) (UniProt P02745); assay: FACS, C1q on antibody-opsonized Raji cells, Exp. 2

Chain of mouse FcRn, biotinylated extracellular domain (FcRnECDHis-B2M-BIO) (mouse) (Q61559 22-297): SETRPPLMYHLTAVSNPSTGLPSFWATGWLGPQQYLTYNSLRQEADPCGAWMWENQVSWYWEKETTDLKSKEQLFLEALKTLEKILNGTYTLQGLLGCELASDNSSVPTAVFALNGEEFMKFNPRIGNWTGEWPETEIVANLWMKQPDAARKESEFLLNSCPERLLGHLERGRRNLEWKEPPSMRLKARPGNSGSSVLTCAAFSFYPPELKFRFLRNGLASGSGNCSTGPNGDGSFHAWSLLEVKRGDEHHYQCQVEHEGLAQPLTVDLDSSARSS
Chain of human complement component C1q (human) (P02745 23-245 limits assumed, chain 1 of 3): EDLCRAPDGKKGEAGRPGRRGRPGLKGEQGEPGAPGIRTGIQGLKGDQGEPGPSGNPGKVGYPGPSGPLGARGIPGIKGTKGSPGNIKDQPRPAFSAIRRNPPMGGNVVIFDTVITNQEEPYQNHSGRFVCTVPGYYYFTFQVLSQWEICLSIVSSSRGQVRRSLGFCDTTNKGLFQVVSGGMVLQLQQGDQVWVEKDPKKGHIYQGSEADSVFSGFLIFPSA
Chain of human complement component C1q (human) (P02746 28-253 limits assumed, chain 2 of 3, further chain): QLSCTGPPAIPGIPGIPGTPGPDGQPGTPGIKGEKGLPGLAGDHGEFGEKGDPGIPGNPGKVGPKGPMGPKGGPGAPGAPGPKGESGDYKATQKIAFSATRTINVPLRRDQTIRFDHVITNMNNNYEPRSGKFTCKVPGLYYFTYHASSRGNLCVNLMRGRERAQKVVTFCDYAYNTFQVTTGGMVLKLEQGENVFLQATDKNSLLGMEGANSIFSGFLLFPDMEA
Chain of human complement component C1q (human) (P02747 29-245 limits assumed, chain 3 of 3, further chain): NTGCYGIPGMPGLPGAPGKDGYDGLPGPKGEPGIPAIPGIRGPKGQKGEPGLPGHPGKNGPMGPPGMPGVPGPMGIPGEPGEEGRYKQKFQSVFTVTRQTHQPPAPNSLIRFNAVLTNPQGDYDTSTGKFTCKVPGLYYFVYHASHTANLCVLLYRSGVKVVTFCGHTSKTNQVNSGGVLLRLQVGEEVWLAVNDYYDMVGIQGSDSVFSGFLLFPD

| Substance | EC50 [1] | CH50 (C1q concentration giving 50% lysis), CDC on Raji cells in C1q-depleted serum [8] | EC50 of CDC on Daudi cells, 20% normal human serum [8] | EC50 of CDC on Raji cells, 20% normal human serum [8] | Kd [9] | Kd [11] | other results |
| --- | --- | --- | --- | --- | --- | --- | --- |
| IgG1-005 (HuMab 005, wild type) (antibody) | 0.14 µg/mL | – | – | – | – | – | – |
| IgG1-005-E345K (antibody) | 0.1 µg/mL | – | – | – | – | – | – |
| IgG1-005-E345N (antibody) | 0.11 µg/mL | – | – | – | – | – | – |
| IgG1-005-E345Q (antibody) | 0.12 µg/mL | – | – | – | – | – | – |
| IgG1-005-E345R (antibody) | 0.09 µg/mL | – | – | – | – | – | – |
| IgG1-005-E345Y (antibody) | 0.13 µg/mL | – | – | – | – | – | – |
| IgG1-005-E430F (antibody) | 0.11 µg/mL | – | – | – | – | – | – |
| IgG1-005-E430G (antibody) | 0.13 µg/mL | – | – | – | – | – | – |
| IgG1-005-E430H (antibody) | 0.11 µg/mL | – | – | – | – | – | – |
| IgG1-005-E430S (antibody) | 0.14 µg/mL | – | – | – | – | – | – |
| IgG1-005-E430T (antibody) | 0.15 µg/mL | – | – | – | – | – | – |
| IgG1-005-K439E (antibody) | 0.31 µg/mL | – | – | – | – | – | – |
| IgG1-005-P247G (antibody) | 0.28 µg/mL | – | – | – | – | – | – |
| IgG1-005-S440K (antibody) | 0.11 µg/mL | – | – | – | – | – | – |
| IgG1-005-S440Y (antibody) | 0.15 µg/mL | – | – | – | – | – | – |
| IgG1-7D8 (HuMab-7D8, wild type) (antibody) | – | 0.49 µg/mL | 0.48 µg/mL | 1.54 µg/mL | – | – | Kd [2]: 4.8 nM; Kd [3]: 11.8 nM; EC50 [4]: 2.05 µg/mL; Kd [5]: 13.3 nM; Kd [6]: 7.7 nM; Kd [7]: 10.9 nM |

| Substance | EC50 [1] | CH50 (C1q concentration giving 50% lysis), CDC on Raji cells in C1q-depleted serum [8] | EC50 of CDC on Daudi cells, 20% normal human serum [8] | EC50 of CDC on Raji cells, 20% normal human serum [8] | Kd [9] | Kd [11] | other results |
| --- | --- | --- | --- | --- | --- | --- | --- |
| IgG1-7D8-E345R (antibody) | – | 0.03 µg/mL | 0.04 µg/mL | 0.16 µg/mL | 1.7 nM | 1.7 nM | Kd [3]: 2.7 nM; Kd [10]: 0.17 nM |
| IgG1-7D8-G385D (antibody) | – | 22.5 µg/mL | 2.12 µg/mL | 17.4 µg/mL | 74 nM | 74 nM | Kd [5]: 71 nM; Kd [12]: 77 nM |
| IgG1-7D8-H433A (antibody) | – | > 30 µg/mL | 3.44 µg/mL | 22.6 µg/mL | 118 nM | 118 nM | Kd [13]: 97.9 nM; Kd [2]: 125 nM; EC50 [4]: 3.33 µg/mL; Kd [14]: 76.1 nM; Kd [15]: 45.2 nM; Kd [6]: 168 nM; Kd [7]: 84 nM; Kd [16]: 181 nM; Kd [17]: 85 nM |
| IgG1-7D8-H435A (antibody) | – | 0.96 µg/mL | 0.81 µg/mL | 2.22 µg/mL | – | – | Kd [13]: 7.3 nM; Kd [2]: 5.4 nM; EC50 [4]: 2.27 µg/mL; Kd [14]: 10.9 nM; Kd [15]: 5 nM; Kd [6]: 7.8 nM; Kd [16]: 10.9 nM; Kd [17]: 9.9 nM |
| IgG1-7D8-H435R (antibody) | – | 0.24 µg/mL | 0.28 µg/mL | 0.61 µg/mL | – | – | EC50 [4]: 1.24 µg/mL; Kd [14]: 8.7 nM; Kd [15]: 2.6 nM; Kd [16]: 3 nM |
| IgG1-7D8-I253A (antibody) | – | 11.2 µg/mL | 0.79 µg/mL | 5.55 µg/mL | 21.5 nM | 21.5 nM | Kd [13]: 18.6 nM; EC50 [4]: 2.56 µg/mL; Kd [14]: 20.4 nM; Kd [15]: 16.7 nM; Kd [6]: 33 nM; Kd [7]: 20.1 nM; Kd [16]: 15.7 nM; Kd [17]: 25.7 nM |
| IgG1-7D8-I253D (antibody) | – | > 30 µg/mL | 3.33 µg/mL | > 30 µg/mL | 157 nM | 157 nM | Kd [2]: 70 nM; EC50 [4]: 3.84 µg/mL; Kd [14]: 176 nM; Kd [6]: 146 nM; Kd [7]: 85.2 nM; Kd [16]: 205 nM; Kd [17]: 172 nM |
| IgG1-7D8-I253Y (antibody) | – | 16.1 µg/mL | 1.77 µg/mL | 28.9 µg/mL | 41.3 nM | 41.3 nM | Kd [13]: 38.7 nM; Kd [2]: 24.3 nM; EC50 [4]: 2.21 µg/mL; Kd [14]: 37 nM; Kd [15]: 21.1 nM; Kd [6]: 58.5 nM; Kd [7]: 46.2 nM; Kd [16]: 48.7 nM; Kd [17]: 45.6 nM |
| IgG1-7D8-K322A (antibody) | – | > 30 µg/mL | > 30 µg/mL | > 30 µg/mL | – | – | – |
| IgG1-7D8-K439E (antibody) | – | > 30 µg/mL | 2.34 µg/mL | 21.5 µg/mL | 361 nM | 361 nM | Kd [5]: 304 nM; Kd [12]: 418 nM |
| IgG1-7D8-K439E + IgG1-7D8-S440K mix | – | 1.33 µg/mL | 0.48 µg/mL | 1.58 µg/mL | – | – | Kd [12]: 3.6 nM |
| IgG1-7D8-N434A (antibody) | – | 21.2 µg/mL | 1.77 µg/mL | – | 42.6 nM | 42.6 nM | Kd [13]: 44.9 nM; Kd [2]: 35.9 nM; EC50 [4]: 2.12 µg/mL; Kd [14]: 47.8 nM; Kd [15]: 28.3 nM; Kd [6]: 36.7 nM; Kd [7]: 35.2 nM; Kd [16]: 48.7 nM; Kd [17]: 46.7 nM |
| IgG1-7D8-Q311A (antibody) | – | 0.63 µg/mL | 0.42 µg/mL | 1.72 µg/mL | 10.7 nM | 10.7 nM | Kd [2]: 4.1 nM; Kd [14]: 13 nM; Kd [6]: 14.3 nM; Kd [7]: 12.2 nM; Kd [17]: 10.1 nM |
| IgG1-7D8-S440K (antibody) | – | > 30 µg/mL | 1.78 µg/mL | 19.5 µg/mL | 109 nM | 109 nM | Kd [5]: 48 nM; Kd [12]: 170 nM |
| IgG1-7D8-Y436D (antibody) | – | > 30 µg/mL | 1.88 µg/mL | 16.6 µg/mL | 468 nM | 468 nM | Kd [5]: 504 nM; Kd [12]: 431 nM |
